Reference: the supplement of paper PMC10126150
± gives the standard deviation of the averaged measurements.

These sequences were tested on ATP (assay: switch fluorescence ratio, 500 uM ATP over buffer (Cy3 cluster intensity, sum of 5 cycles each) (fold (ratio)); higher = stronger signal-on switching upon ATP binding; sequences stand for … in TCGTCGGCAGCGTCAGATGTGTATAAGAGACAGTTTTTTTTTTTTTTTTTTTTTTTTT…TC). Settings: aptamer strand: ATP DNA aptamer (quencher-CACCTGGGGGAGTATTGCGGAGGAAGG + anchor), 100 nM annealed; ATP concentration: 500 uM.
How it was run: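 Exposure to 500 uM ATP lasted 15 min at 22 °C before imaging, and a selection-buffer image was taken beforehand, for Cy3-labelled switching-strand clusters on a modified Illumina MiSeq flow-cell annealed to 100 nM quencher-labelled ATP aptamer. Five buffer/ATP cycles were run with NaOH stripping and re-annealing between them. The fluorescence ratio per cluster is summed target-cycle over summed buffer-cycle Cy3 intensity, averaged per switch-domain sequence. Clusters outside 100-1000 RFU were excluded.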
With CTCGGGGGGT the switch fluorescence ratio was 1.01 ± 0.014.
With CATAAGATGC the switch fluorescence ratio was 1.03 ± 0.027.
With CTAATACTAG the switch fluorescence ratio was 0.982 ± 0.047.
CGATATCGC gave a switch fluorescence ratio of 1.03 ± 0.014.
AGGTTAAGAC gave a switch fluorescence ratio of 0.99 ± 0.044.
GAGTGGTTTA gave a switch fluorescence ratio of 0.9913 ± 0.0096.
In the case of AGATCGGTTT, the switch fluorescence ratio is reported as 1 ± 0.042.
Work on GAGGGGGAGA yielded a switch fluorescence ratio of 0.99 ± 0.024.
TTGTTAAGTG was tested, and the switch fluorescence ratio was 1.02 ± 0.1.
ACTGCTAGGG was tested, and the switch fluorescence ratio was 1.02 ± 0.013.
In the case of AGGATCGGTC, the switch fluorescence ratio is reported as 1.02 ± 0.021.
In the case of AGGTTGAAAA, the switch fluorescence ratio is reported as 0.963 ± 0.032.
Sequence TCTCGGGTTT has a switch fluorescence ratio of 0.9951 ± 0.0055.
With GAACTAACAG the switch fluorescence ratio was 1.03 ± 0.021.
For GTGGTAGGGC, the switch fluorescence ratio was 1.021 ± 0.001.
GATTATTTTC showed a switch fluorescence ratio of 1.03 ± 0.061.
Sequence GCTGACTTGT has a switch fluorescence ratio of 0.977 ± 0.016.
In the case of AAAGGGGGGG, the switch fluorescence ratio is reported as 1.01 ± 0.037.
ATTCCGGGCT showed a switch fluorescence ratio of 1.05 ± 0.031.
ACGGGGGACA gave a switch fluorescence ratio of 1.02 ± 0.035.
AATAATATTA showed a switch fluorescence ratio of 0.975 ± 0.019.
For CAGTTGGGTA, the switch fluorescence ratio was 0.98 ± 0.028.
Work on AGGGCTAAAT yielded a switch fluorescence ratio of 0.995 ± 0.025.
Work on TTGGTTCGAC yielded a switch fluorescence ratio of 0.962 ± 0.04.
For ACGGTGTAGG, the switch fluorescence ratio was 1.11 ± 0.12.
Work on TAGTAGCTTT yielded a switch fluorescence ratio of 1.2 ± 0.31.
TGCTCGGGGA showed a switch fluorescence ratio of 1.021 ± 0.0023.
TGTAACTGAG showed a switch fluorescence ratio of 1.0374 ± 3e-05.
TTCGGCAATG showed a switch fluorescence ratio of 1.39 ± 0.38.
Work on CATTTAGGGA yielded a switch fluorescence ratio of 1.01 ± 0.029.
Work on TTCGCGGTTA yielded a switch fluorescence ratio of 1 ± 0.03.
Sequence ATAATATACT has a switch fluorescence ratio of 1.04 ± 0.055.
In the case of ATGCAGAGTA, the switch fluorescence ratio is reported as 1.01 ± 0.018.
Sequence TGTTCGGAAA has a switch fluorescence ratio of 1.01 ± 0.014.
With GGGAACCAAG the switch fluorescence ratio was 0.997 ± 0.026.
In the case of TCACAATTTT, the switch fluorescence ratio is reported as 1.08 ± 0.097.
TTGCGGCGTG gave a switch fluorescence ratio of 0.956 ± 0.024.
ATCAGGGTGT gave a switch fluorescence ratio of 1.16 ± 0.031.
Work on TGGGGCGGTG yielded a switch fluorescence ratio of 1.001 ± 0.0085.
TGGAGATAGG gave a switch fluorescence ratio of 0.994 ± 0.016.
For TGAGATTATT, the switch fluorescence ratio was 1.01 ± 0.038.
Sequence GGCACAAAAG has a switch fluorescence ratio of 0.983 ± 0.019.
For GTTTTTGACG, the switch fluorescence ratio was 0.955 ± 0.042.
TGTTGATTTT was tested, and the switch fluorescence ratio was 1.03 ± 0.043.
Sequence GAGGCCTTAC has a switch fluorescence ratio of 1.69 ± 0.043.
ATTGGTCCTG showed a switch fluorescence ratio of 0.999 ± 0.02.
TGAGGGCTAG gave a switch fluorescence ratio of 1 ± 0.015.
AGCGCAAGAT showed a switch fluorescence ratio of 1.791 ± 0.013.
Sequence TTTATTACAT has a switch fluorescence ratio of 0.996 ± 0.014.
Work on ATAACACATG yielded a switch fluorescence ratio of 1.01 ± 0.032.
For AATATAGGAC, the switch fluorescence ratio was 0.972 ± 0.013.
Work on ACGCGGTGAC yielded a switch fluorescence ratio of 1.09 ± 0.025.
With GCCAGGTTCC the switch fluorescence ratio was 1.09 ± 0.034.
Work on TTTAGAGATT yielded a switch fluorescence ratio of 1.01 ± 0.068.
For TTATTTTGTT, the switch fluorescence ratio was 0.982 ± 0.034.
Sequence GGCTAAACG has a switch fluorescence ratio of 1.05 ± 0.011.
TGGGGGTCTA showed a switch fluorescence ratio of 0.971 ± 0.031.
TGGGGCCTGT showed a switch fluorescence ratio of 0.978 ± 0.023.
TGGTGTGGGG gave a switch fluorescence ratio of 0.993 ± 0.021.
AGAAGCCCCC was tested, and the switch fluorescence ratio was 1.02 ± 0.048.
Sequence GCTATGGGCG has a switch fluorescence ratio of 1.03 ± 0.033.
With GAAAGACGCT the switch fluorescence ratio was 1.15 ± 0.3.
In the case of TCGGCCGGAA, the switch fluorescence ratio is reported as 1.08 ± 0.025.
With TGATACCGTG the switch fluorescence ratio was 1.01 ± 0.017.
In the case of AGAAACAAGG, the switch fluorescence ratio is reported as 0.979 ± 0.027.
ATTGTTTAAT showed a switch fluorescence ratio of 1.03 ± 0.017.
With CATGGCCTTA the switch fluorescence ratio was 0.972 ± 0.0097.
Sequence TTCGGACTTC has a switch fluorescence ratio of 0.976 ± 0.064.
Sequence CCGGCAGGAT has a switch fluorescence ratio of 0.988 ± 0.011.
In the case of CTGAGTTGTT, the switch fluorescence ratio is reported as 0.989 ± 0.08.
Work on ACAGGTTTGA yielded a switch fluorescence ratio of 1.03 ± 0.021.
Work on AGATAGTTGT yielded a switch fluorescence ratio of 1.01 ± 0.016.
Work on GTGAGAGAGT yielded a switch fluorescence ratio of 0.962 ± 0.015.
GATGTGAGGC was tested, and the switch fluorescence ratio was 1.14 ± 0.046.
Sequence TAATCTGGTA has a switch fluorescence ratio of 0.986 ± 0.017.
Work on TCGAGTTTGT yielded a switch fluorescence ratio of 1.01 ± 0.022.
With ATATATGGCT the switch fluorescence ratio was 0.999 ± 0.035.
In the case of TGGGGGGGAT, the switch fluorescence ratio is reported as 0.993 ± 0.026.
ATTTTTGGC showed a switch fluorescence ratio of 1.03 ± 0.06.
In the case of CAATACATAT, the switch fluorescence ratio is reported as 1.07 ± 0.023.
For TAAGTGGGAA, the switch fluorescence ratio was 1.01 ± 0.035.
For AAGTTGCAGC, the switch fluorescence ratio was 1 ± 0.025.
Work on GGAGAATGCG yielded a switch fluorescence ratio of 1.02 ± 0.013.
CGCCTTGGTT gave a switch fluorescence ratio of 1.02 ± 0.013.
Sequence AGGGAAGGGA has a switch fluorescence ratio of 1 ± 0.013.
GTTTGAGGGA showed a switch fluorescence ratio of 0.982 ± 0.035.
GGGGTGGGCA gave a switch fluorescence ratio of 1 ± 0.011.
In the case of TTTGTAAGGG, the switch fluorescence ratio is reported as 0.986 ± 0.021.
With GATTATGTTA the switch fluorescence ratio was 0.9772 ± 0.007.
Sequence AGGTAGGGCT has a switch fluorescence ratio of 1 ± 0.029.
With ATAGGAACGC the switch fluorescence ratio was 0.995 ± 0.026.
TTGAAGTCTA showed a switch fluorescence ratio of 0.992 ± 0.027.
Work on CTGTTTAGGA yielded a switch fluorescence ratio of 1.02 ± 0.053.
CCCTTTTTAT showed a switch fluorescence ratio of 0.986 ± 0.014.
For AGGATTGTTG, the switch fluorescence ratio was 0.994 ± 0.07.
Work on AGTGGTTGTG yielded a switch fluorescence ratio of 0.973 ± 0.0069.
TTTGATGTTA was tested, and the switch fluorescence ratio was 0.981 ± 0.034.
TAAGTTTGGG was tested, and the switch fluorescence ratio was 0.968 ± 0.04.
Work on TGATAGGGTT yielded a switch fluorescence ratio of 0.985 ± 0.014.
In the case of TGGCGGAAAG, the switch fluorescence ratio is reported as 0.977 ± 0.025.
